Data from patent US20240092922A1 (EUCURE BEIJING BIOPHARMA, published 2024).

T1: monkey (Rhesus macaque) 4-1BB (r4-1BB) on transfected CHO cells (monkey (Rhesus macaque), UniProt Q07011 24-255 (human entry))
T1 construct: also called rm4-1BB; CHO-r4-1BB
T1 chain: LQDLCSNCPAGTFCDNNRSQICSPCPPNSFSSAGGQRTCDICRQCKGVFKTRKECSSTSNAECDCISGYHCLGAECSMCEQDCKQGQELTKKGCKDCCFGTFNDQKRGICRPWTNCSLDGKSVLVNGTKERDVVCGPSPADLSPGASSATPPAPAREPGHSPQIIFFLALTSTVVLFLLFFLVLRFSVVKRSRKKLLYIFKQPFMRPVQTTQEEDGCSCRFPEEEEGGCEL


Tests used:
[1] = target: T2, human 4-1BB (h4-1BB) on transiently transfected CHO cells (human, UniProt Q07011 24-255); assay: flow cytometry, CHO cells transfected with human 4-1BB, antibody at 0.001 µg/ml
T2 construct: also called TNFRSF9; CD137
Description: (§1) 25 μl CHO cells transiently transfected with human 4-1BB were added to each well in a plate. The purified antibodies were titrated to final concentrations of 10, 1, 0.1, 0.01, 0.001 μg/ml. The titrated antibodies were added to each well at 4° C. and incubated for 30 minutes.
(§2) After being washed with phosphate-buffered saline (PBS) (1200 rpm, 5 minutes) twice, 50 μl of FITC labeled anti-mouse IgG Fc antibody (anti-mIgG Fc-FITC) at 1:100 dilution was added into each well, and incubated for 30 minutes at 4° C., followed by PBS wash (1200 rpm, 5 minutes). The signal for FITC was detected by flow cytometry.

[2] = target: T3, mouse 4-1BB (m4-1BB) on transfected CHO cells (mouse, UniProt P20334 24-256); assay: flow cytometry on CHO cells transfected with mouse 4-1BB
T3 construct: also called CHO-m4-1BB
Description: (§3) 25 μl CHO cells were added to each well. 25 μl purified anti-h4-1BB antibodies (1 μg/ml) were added to each well and were incubated at 4° C. for 30 minutes.
(§4) After being washed with PBS (1200 rmp, 5 min) twice, 50 μl of FITC labeled anti-mouse IgG Fc antibody (anti-mIgG Fc-FITC) was added into each well at 1:100 dilution, followed by incubating at 4° C. for 30 minutes, and then PBS wash (1200 rmp, 5 min). In some cases, PE labeled anti-mouse IgG Fc antibody (anti-mIgG Fc-PE) was used to label the antibody instead, and was added into each tested well at 1:500 dilution. The signals for FITC and PE were determined by flow cytometry.

[3] = target: T2, human 4-1BB (h4-1BB) on transiently …; assay: flow cytometry, CHO cells transfected with human 4-1BB, antibody at 10 µg/ml
Description: as §1, §2

[4] = target: T2, human 4-1BB (h4-1BB) on transiently …; assay: flow cytometry, CHO cells transfected with human 4-1BB, antibody at 0.1 µg/ml
Description: as §1, §2

[5] = target: T4, chimeric (mouse and human) 4-1BB (c4-1BB) on transfected CHO cells (chimeric (mouse and human)); assay: flow cytometry on transfected CHO cells;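 further: antibodies tested at 1 µg/ml on CHO cells for 30 min at 4 °C, binding detected with FITC- or PE-labeled anti-mouse IgG Fc secondary by flow cytometry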
T4 construct: also called chi4-1BB; CHO-c4-1BB
Description: as §3, §4

[6] = target: T1, monkey (Rhesus macaque) 4-1BB (r4-1BB) …; assay: flow cytometry on transfected CHO cells;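 further: antibodies tested at 1 µg/ml on CHO cells for 30 min at 4 °C, binding detected with FITC- or PE-labeled anti-mouse IgG Fc secondary by flow cytometry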
Description: as §3, §4

[7] = target: T2, human 4-1BB (h4-1BB) on transiently …; assay: flow cytometry, CHO cells transfected with human 4-1BB, antibody at 1 µg/ml
Description: as §1, §2

[8] = target: T2, human 4-1BB (h4-1BB) on transiently …; assay: flow cytometry, CHO cells transfected with human 4-1BB, antibody at 0.01 µg/ml
Description: as §1, §2

[9] = target: T3, mouse 4-1BB (m4-1BB) on transfected CHO …; assay: flow cytometry on CHO-m4-1BB cells, anti-mouse-IgG-Fc-FITC (1:100)
Description: as §3, §4

percentage of cells with FITC signal [1] [%] | binding result [2] | percentage of cells with FITC signal [3] [%] | percentage of cells with FITC signal [4] [%] | binding result [5] | binding result [6] | percentage of cells with FITC signal [7] [%] | percentage of cells with FITC signal [8] [%] | binding result [9] | Binder
0.962 | no binding (tested: 1 µg/ml) | 52.9 | 1.14 | binds | binds | 23.7 | 0.913 | – | 70-6F10 (antibody, V domains shown, mouse antibody purified from ascites) VH: QVQLQQSGPELVKPGASVKISCKASGYAFNNSWMNWVKQRPGQGLEWIGRIYPGDGDTDYNGKFKGKATLTADKSSSTAYMQLSSLTSVDSAVYFCARLDGNYYYWYFDVWGAGTTVTVSS VL: not shown
0.316 | – | 69.1 | 49.7 | – | – | 69 | 6.61 | no binding (tested: 1 µg/ml) | 16-1C4 (antibody, V domains shown, mouse antibody purified from ascites) VH: QGQMQQSGAELVKPGASVKLSCKTSGFTFSSSYINWLKQKPGQSLEWIAWIFAGTGGTYYNQKFTGKAQLTVDTSSGTAYMQFSSLTTEDSAIYYCARHSPRATLFDFWGQGTTLTVSS VL: QIVLSQSPAILSASPGEKVTMTCRASSSVNHMHWYQQRTGFSPKAWIYATSNLASGVPARFSGSGSGTSYSLTISRVEAEDAATYYCQQWSSNPYTFGGGTKLEIK
1.25 | no binding (tested: 1 µg/ml) | 56.7 | 9.06 | binds | binds | 56.4 | 3.37 | – | 70-3F9 (antibody, V domains shown, mouse antibody purified from ascites) VH: QVQLQQPGAELVRPGASVKLSCKASGYTFTSYWINWVKQRPGQGLEWIGNIFPSDSYTNYNQKFKDRAKLTVDKSSSTAYMQLSSPTSEDSAVYYCTRFGSSGYPDYYTMEYWGQGTSVTVSS VL: DIQMTQSPASLSASVGETVTITCRASGNIDNYLAWYQQKQGKSPQLLVYNAKTLAEGVPSRFSGSGSGTEYSLKINSLQPEDFGSYHCQQYWTIPYTFGGGTKLEIK
0.802 | – | 68.9 | 25.3 | – | – | 56.2 | 0.72 | no binding (tested: 1 µg/ml) | 30-5F9 (antibody, V domains shown, mouse antibody purified from ascites) VH: QVQLKESGPGLVAPSQSLSITCTVSGFSLTTYDISWVRQPPGKGLEWLGVIWTGGGTNYNSSFMSRLSISKDNSKNQVFLKMNSLQVDDTAIYYCERVDYWGQGTTLTVSS VL: DVVMTQTPLSLPVSLGDQASISCRSSQSLVHSNGNTYLHWYLQKPGQSPKLLIYKVSNRFSGVPDRFSGSGSGTAFTFKISRVEAEDLGVYFCSQNTHVPWTFGGGTKLEIK
